{
  "source": "patent US20170165321A1",
  "about": "“METHOD FOR REDUCING AND/OR DELAYING PATHOLOGICAL EFFECTS OF HUMAN IMMUNODEFICIENCY VIRUS I (HIV) OR FOR REDUCING THE RISK OF DEVELOPING ACQUIRED IMMUNODEFICIENCY SYNDROME (AIDS)” (Bionor Immuno AS, priority 2014, published 2017)",
  "key": {"HIV positive subjects [1]": {"tested_on": "HIV positive subjects", "experiment": "Phase II dose-finding study CTN B-HIV 2/2001", "assay_type": "in vivo, human", "experimental": "The Phase II dose-finding study (CTN B-HIV 2/2001) enrolled 40 HIV positive subjects, of which 38 completed the trial. Subjects were maintained on ART and treated with 10 immunizations at a dose of 0.4 mg (20 subjects) or 1.2 mg (20 subjects) per Vacc 4x injection, over a period of 26 weeks. Immunizations with Vacc 4x were performed following injection of rhu-GM-CSF (Leucomax [molgramostim]) as a local adjuvant. ART was interrupted from Week 26 to Week 30 to allow exposure to the subject's own virus (autologous immunization). ART was resumed from Week 30 to Week 38 to allow maturation of immune responses to the Vacc 4x peptides and to the subject's own virus. ART was discontinued from Week 38 to Week 52 when the study was formally concluded. […] One subject experienced a transient vasovagal reaction in conjunction with immunization and the DTH test at Week 26 and Week 38. A second subject experienced a vasovagal reaction in conjunction with the DTH test at Week 52. For the laboratory parameters, vital signs, and performance status, no changes attributable to immunization were observed.\nThe dose-dependent differences in DTH reactions were maintained throughout the study. […] ART was interrupted at Week 38 with planned restart when CD4 counts fell to less than 200/μL or when AIDS- or HIV related events were observed (i.e. clinical practice).\nHowever, 14 weeks after the last interruption of ART (Week 52), the mean CD4 counts were still above 200×10^6 cells/L. No difference between the LD and the HD groups was observed. The majority of subjects remained off ART following completion of the study (Week 52); permission was given to follow the subjects until they resumed ART. The duration of treatment interruption was linked to immune responsiveness to the peptides. […] The median treatment interruption achieved for all the subjects that participated in the Vacc-4x Phase II clinical study was 31 months."}, "rats": {"tested_on": "rats", "experiment": "Single-dose intravenous toxicity study in rats", "assay_type": "in vivo, rat", "experimental": "(§1) Toxicity studies were performed in mice and rats on the peptide composition of the vaccine in Example 2. The mouse was selected for the study to provide comparative data from a second commonly used rodent species. The test substance was a mixture of four peptides supplied as one vial containing lyophilised material for reconstitution with physiological saline, and dose levels were expressed in terms of total peptide load. The individual peptides was present in ratio 1:1:1:1 w/w giving dose levels of each peptide of 0.0075 mg/kg body weight, 0.075 mg/kg body weight and 0.75 mg/kg body weight, which are up to 500 fold the intended human dose. The test animals were divided into four groups of ten animals each (five males and five females); a saline control group and groups for low, intermediate and high doses. The test composition was administered once, by intravenous infusion into a tail vein at a dose rate of 3 ml/minute. The animals were killed at day 15 and 16 by intraperitoneal injection of sodium pentobarbitone."}, "rabbit": {"tested_on": "rabbit", "experiment": "Rabbit study of intradermal Vacc-4x with concomitant GM-CSF", "assay_type": "in vivo", "experimental": "In a rabbit study the effect of Vacc-4x was evaluated in the presence of concomitant GM-CSF, the adjuvant used in the clinical program."}, "HIV positive subjects [2]": {"tested_on": "HIV positive subjects", "experiment": "Open-label re-boost follow-up study CTN BI Vacc-4x/2009/1", "assay_type": "in vivo, human", "description": "CTN BI Vacc-4x/2009/1 was an open-label follow-up of study CTN B-HIV-2/2001 to determine whether a re-boost with Vacc-4x could reactivate or increase the immune response obtained during the immunization performed in the CTN B-HIV-2/2001 study. The secondary objectives were to evaluate: the in vivo immunogenicity of Vacc-4x by evaluation of DTH and to compare the DTH response to DTH in the initial study; the effect of Vacc-4x on CD4 counts, CD8 counts and HIV viral RNA; and the safety and tolerability of Vacc-4x. All 26 subjects included in the study received two booster administrations of Vacc-4x."}, "mice": {"tested_on": "mice", "experiment": "Single-dose intravenous toxicity study in mice", "assay_type": "in vivo, mouse", "experimental": "as §1"}, "[3]": {"experiment": "Osmolality of reconstituted Vacc-4x drug product", "assay_type": "physicochemical", "experimental": "The range of 10-100 mOsm/kg was defined based on the result obtained for the technical sample. Potential variability due to the four peptides is taken into account. For the drug product, approximately 1 mg of each of the four Vacc-4x peptides was used. The lyophilisate is reconstituted with 0.30 mL of WFI. Taking the acetic acid contents of the peptides listed in table 1 into account, the acetic acid content of Vacc-4x is approximately 0.40 mg in 0.30 mL of solution. The theoretical osmolality is approximately 23 mOsmol/L by calculation, which correlates well with the values determined in the Vacc-4x batches (20-23 mOsmol/kg)."}, "[4]": {"details": "0.4 mg/injection, 12 immunizations"}, "[5]": {"details": "single intravenous dose, total peptide load"}, "[6]": {"details": "single intravenous infusion, up to 0.75 mg/kg of each peptide"}, "[7]": {"details": "26 subjects, two booster administrations"}},
  "note": "Where no end group is shown, it is not given here.",
  "data": [
    {"molecule": "Vacc-4x: four synthetic peptides (Vacc-10, Vacc-11, Vacc-12, Vacc-13 acetate) corresponding to conserved domains on HIV-1 p24; SEQ ID NOs 3, 6, 11, 18 (also: acetate salts) chain 1: APTRAKRRVVQREKRAV chain 2: DRPEGIEEEGGERDR chain 3: QLLLNGSLAEEEIVI chain 4: GGAKRRVVGGAKRRVVGGQREKR", "values": [
      {"measurement": "subjects with treatment-related AEs", "setting": "HIV positive subjects [1]; 0.4 mg group (20 subjects)", "result": 8, "unit": "subjects"},
      {"measurement": "DTH positive reactions", "setting": "HIV positive subjects [1]; 0.4 mg or 1.2 mg per injection", "result": "observed for all subjects"},
      {"measurement": "SAEs during the period of immunization", "setting": "HIV positive subjects [1]; 0.4 mg or 1.2 mg per injection", "result": "No SAEs were reported"},
      {"measurement": "subjects with treatment-related AEs", "setting": "HIV positive subjects [1]; 1.2 mg group (20 subjects)", "result": 12, "unit": "subjects"},
      {"measurement": "DTH positive responses (induration and erythema), high dose versus low dose", "setting": "HIV positive subjects [1]; 1.2 mg versus 0.4 mg", "result": "statistically significantly higher in the high dose"},
      {"measurement": "median treatment interruption", "setting": "HIV positive subjects [1]; all subjects of the Phase II study, off ART", "result": 31, "unit": "months"},
      {"measurement": "subjects with treatment-related AEs", "setting": "HIV positive subjects [1]; both dose groups, 40 subjects, 10 immunizations over 26 weeks", "result": 20, "unit": "subjects"},
      {"measurement": "decline in CD4 cells versus similar subjects who stopped treatment without Vacc-4x", "setting": "HIV positive subjects [1]; comparison with subjects in the Netherlands", "result": "significantly slower decline in CD4 cells"},
      {"measurement": "CD4 counts during the immunization period", "setting": "HIV positive subjects [1]; on ART", "result": "stable or increased"},
      {"measurement": "serious adverse events", "setting": "HIV-positive subjects; [4]", "result": "no serious adverse events (SAEs) occurred"},
      {"measurement": "severity of adverse reactions", "setting": "HIV-positive subjects; [4]", "result": "mild or moderate in severity except for severe local reactions in one subject"},
      {"measurement": "antibody response to Vacc-4x peptides", "setting": "HIV-positive subjects; 11 subjects", "result": "no antibody response"},
      {"measurement": "cell-mediated immune response by delayed-type hypersensitivity (DTH) skin reaction", "setting": "HIV-positive subjects; 11 subjects", "result": "All subjects experienced a cell-mediated immune response"},
      {"measurement": "subjects with cell-mediated immune response by γ IFN release ELISPOT", "setting": "HIV-positive subjects; 11 subjects", "result": "45 % of the subjects"},
      {"measurement": "treatment related fatigue-vertigo", "setting": "HIV-positive subjects; 11 subjects", "result": "four"},
      {"measurement": "treatment related influenza-like symptoms", "setting": "HIV-positive subjects; 11 subjects", "result": "two"},
      {"measurement": "treatment related irritated skin at injection site", "setting": "HIV-positive subjects; 11 subjects", "result": "two"},
      {"measurement": "treatment related painful injection", "setting": "HIV-positive subjects; 11 subjects", "result": "seven"},
      {"measurement": "subjects with events judged related to treatment", "setting": "HIV-positive subjects; 11 subjects, 0.4 mg/injection, 12 immunizations", "result": "nine"},
      {"measurement": "subjects with one or more adverse events", "setting": "HIV-positive subjects; 11 subjects, 12 immunizations of 0.4 mg/injection over 26 weeks, rhu-GM-CSF adjuvant", "result": "All subjects experienced one or more adverse events"},
      {"measurement": "safety margin over the planned human dose level", "setting": "rats; from no effect level", "result": 500, "unit": "fold"},
      {"measurement": "no effect level", "setting": "rats; [5]", "result": "> 3", "unit": "mg/kg"},
      {"measurement": "adverse reactions", "setting": "rats; [6]", "result": "no adverse reactions"},
      {"measurement": "limiting toxicology", "setting": "rabbit", "result": "no limiting toxicology"},
      {"measurement": "local intradermal reactions (erythema, edema) versus control animals", "setting": "rabbit", "result": "slightly more pronounced"},
      {"measurement": "systemic reactions", "setting": "rabbit", "result": "no systemic reactions"},
      {"measurement": "adverse events possibly/probably related to the study treatment", "setting": "HIV positive subjects [2]; 26 subjects", "result": 60},
      {"measurement": "patients reporting swelling related to the immunization", "setting": "HIV positive subjects [2]; 26 subjects", "result": "Five"},
      {"measurement": "related adverse events that were mild", "setting": "HIV positive subjects [2]; 26 subjects", "result": 98, "unit": "%"},
      {"measurement": "serious adverse events", "setting": "HIV positive subjects [2]; 26 subjects", "result": "No patient reported serious adverse events"},
      {"measurement": "subjects reporting AEs", "setting": "HIV positive subjects [2]; [7]", "result": 23, "unit": "subjects"},
      {"measurement": "total AEs reported", "setting": "HIV positive subjects [2]; [7]", "result": 74, "unit": "AEs"},
      {"measurement": "duration of T cell responses induced by Vacc-4x peptides", "setting": "HIV positive subjects [2]; before re-boost", "result": "up to seven"},
      {"measurement": "effect of re-boosting on CD4, CD8 and viral load", "setting": "HIV positive subjects [2]; two booster administrations", "result": "no negative effect"},
      {"measurement": "safety margin over the planned human dose level", "setting": "mice; from no effect level", "result": 500, "unit": "fold"},
      {"measurement": "no effect level", "setting": "mice; [5]", "result": "> 3", "unit": "mg/kg"},
      {"measurement": "adverse reactions", "setting": "mice; [6]", "result": "no adverse reactions"},
      {"measurement": "theoretical osmolality", "setting": "[3]; by calculation, approx. 0.40 mg acetic acid in 0.30 mL", "result": "approximately 23 mOsmol/L"},
      {"measurement": "osmolality determined in the Vacc-4x batches", "setting": "[3]; lyophilisate, approx. 1 mg of each peptide, reconstituted with 0.30 mL WFI", "result": "20-23 mOsmol/kg"}
    ]}
  ]
}
